# Biological target: C-domain fragment of human calmodulin (residues 76-148), calcium-free (apo) (human, UniProt P0DP23 77-149)
# Test: NMR backbone assignment and chemical shift perturbation
binder,measurement,value
GPGSKRKQEEVSAIIIQRAYRRYLLKQKVKK,binding result,binds
